The results in this text go back to patent US20110059889A1 (SYNTONIX PHARMACEUTICALS, published 2011).

Where two headings read alike, the source gives them in different places. Bridge positions count the residues as written; N and C are the ends. Square brackets hold non-standard residues; d marks the D form. Ends that are not written are not given here. Phe(F5) = N[C@@H](Cc1c(F)c(F)c(F)c(F)c1F)C(=O)O; Phe(4-NH2) = Nc1ccc(C[C@H](N)C(=O)O)cc1; Phe(3-Me) = Cc1cccc(C[C@H](N)C(=O)O)c1; Phe(4-Me) = Cc1ccc(C[C@H](N)C(=O)O)cc1; NMeL = CN[C@@H](CC(C)C)C(=O)O; Pen = CC(C)(S)[C@H](N)C(=O)O; hCys = N[C@@H](CCS)C(=O)O; Sar = CNCC(=O)O

Usually Kd stands for the concentration at which binding is half-saturated. A higher Kd goes with weaker binding. The term IC50 denotes the concentration that inhibits the measured activity by half. Read a high IC50 as weaker potency.

Test [1] addresses T1, soluble human FcRn (shFcRn) (human, UniProt P55899 24-297; P61769 21-119).
T1 construct: Biotinylated for the ELISA, amine-coupled to a CM5 chip for SPR; also called biotinylated shFcRn
In words: SPR pH 6.
Procedure: (§1) The following steps were performed to cross-link soluble human or cynomolgus FcRn to the dextran surface of a CM5 sensor chip (Biacore AB, Uppsala, Sweden) by an amine coupling reaction involving 1-ethyl-(3-dimethylaminopropyl)-carbodiimide hydrochloride (EDC) (Biacore AB, Uppsala, Sweden) and N-hydroxysuccinimide (NHS) (Biacore AB, Uppsala, Sweden) as recommended by Biacore (BIAapplications Handbook, version AB, section 4.2, Biacore AB, Uppsala, Sweden). […] Residual sites on the FcRn flow cell were blocked with 1 M ethanolamine hydrochloride pH 8.5 (Biacore AB, Uppsala, Sweden). A control flow cell was blocked with ethanolamine for reference subtraction. For analysis of the monomeric peptides, FcRn was coated to a final density of 4000-5000 response units (RU). For analysis of the peptide dimers, FcRn was coated to a density of 2000-2500 RU. All SPR measurements were performed using a BIACORE 3000 Instrument (Biacore AB Uppsala, Sweden). For measurements done at either pH 6 or pH 7.4, experiments were performed in 50 mM phosphate, 100 mM sodium chloride, 0.01% surfactant P20 (Biacore AB, Uppsala, Sweden).
(§2) Ten, 2-fold dilutions of the peptide were injected over the FcRn-CM5 chip at a rate of 20 μl/min for 2 min. The peptide was dissociated from the chip for 2.5 minutes with buffer. Any remaining peptide was removed from the chip with a 30 second injection of HBS-P buffer (Biacore AB, Uppsala, Sweden) at a rate of 30 μl/min. Sensorgrams were generated and analyzed using BiaEval software version 3.1 (Biacore AB, Uppsala, Sweden). The equilibrium RU observed for each injection was plotted against concentration. The equilibrium KD values were derived by analysis of the plots using the steady state affinity model included in the BiaEval software.

The target in test [2] is T1, soluble human FcRn (shFcRn). Nature of the test: SPR pH 6. This is another data set of the same source.
Procedure: as §1, §2
Test [3] shares this target. In words: IgG competition ELISA. A general note: An ELISA detects its analyte on a solid surface through an enzyme-linked reagent.
The target is the same in test [4]. In words: SPR pH 7.4.
Procedure: as §1, §2
Test [5] has the same target. In words: SPR pH 6. This is another data set of the same source.
Procedure: as §1, §2
For test [6] the target is unchanged. Nature of the test: IgG competition ELISA. This is another data set of the same source.
For test [7] the target is unchanged. Nature of the test: SPR pH 6. The source holds these as a separate data set.
Procedure: as §1, §2
Test [8] has the same target. Nature of the test: IgG competition ELISA. This is another data set of the same source.
Procedure: The wells were coated with 100 μl/well of 1 μg/ml biotinylated-shFcRn in Buffer A. The plate was sealed and incubated at 37° C. for 2 hours. Afterwards, the plate was washed with 200 μl/well of Buffer B (Buffer B: 100 mM MES pH 6, 150 mM NaCl, 0.5% BSA IgG-free (Jackson ImmunoResearch, West Grove, Pa.), 0.05% Tween-20). […] To allow for mixing, the plate was rocked for 2 minutes, sealed and incubated at 37° C. for 2 hours. […] The plate was covered, incubated for 30 minutes at room temperature and washed 4 times with 200 μl/well of ice-cold buffer B. SureBlue TMB substrate solution (100 μl/well, KPL, Gaithersburg, Md.) was added and the plate was allowed to incubate at room temperature until color developed, which took 5 to 10 minutes. Once color developed, 100 μl/well of TMB stop solution (KPL, Gaithersburg, Md.) was added and the absorbance was measured at 450 nm. The data was plotted as absorbance vs. peptide concentration to derive the inhibitory concentration 50% (IC₅₀) values.

T1 sequence (P55899 24-297 limits assumed, chain 1 of 2): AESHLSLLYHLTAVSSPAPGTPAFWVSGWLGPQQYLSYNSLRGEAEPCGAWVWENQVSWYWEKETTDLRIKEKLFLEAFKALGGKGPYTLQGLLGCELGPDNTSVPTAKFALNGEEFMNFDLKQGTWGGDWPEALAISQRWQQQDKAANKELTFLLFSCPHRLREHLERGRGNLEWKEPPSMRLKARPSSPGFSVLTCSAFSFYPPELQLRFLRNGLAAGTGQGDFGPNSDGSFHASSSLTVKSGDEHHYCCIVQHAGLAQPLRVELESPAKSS
T1 sequence (P61769 21-119 limits assumed, chain 2 of 2): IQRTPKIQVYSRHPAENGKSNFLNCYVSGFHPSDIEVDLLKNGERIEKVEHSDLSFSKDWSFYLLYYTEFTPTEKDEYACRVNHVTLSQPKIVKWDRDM

B1: Peptide No. 57 (peptide)
peptide: QRF[Pen]TGH[Phe(F5)]GGLYPCNGP-NH2
modifications: disulfide 4-14; N-terminus assumed
SMILES: CC(C)C[C@@H]1NC(=O)CNC(=O)CNC(=O)[C@H](Cc2c(F)c(F)c(F)c(F)c2F)NC(=O)[C@H](Cc2c[nH]cn2)NC(=O)CNC(=O)[C@H]([C@@H](C)O)NC(=O)[C@@H](NC(=O)[C@H](Cc2ccccc2)NC(=O)[C@H](CCCNC(=N)N)NC(=O)[C@@H](N)CCC(N)=O)C(C)(C)SSC[C@@H](C(=O)N[C@@H](CC(N)=O)C(=O)NCC(=O)N2CCC[C@H]2C(N)=O)NC(=O)[C@@H]2CCCN2C(=O)[C@H](Cc2ccc(O)cc2)NC1=O
In the case of B1, in test [1], the Kd came out at 70 µM.
On to QRFCTGHFGXLYPCNGP (Pen 4; Aib (aminoisobutyric acid) 10; disulfide 4-14; C-terminal amide) [Peptide No. 46], for which the figures for the Kd in test [2] and in test [4] were 0.48 µM and 5.3 µM, respectively. The molecule further had an IC50 in test [3] of 2.4 µM.

B2: Peptide No. 55 (peptide)
peptide: QRF[Pen]TGH[Phe(4-NH2)]GGLYPCNGP-NH2
modifications: disulfide 4-14; N-terminus assumed
SMILES: CC(C)C[C@@H]1NC(=O)CNC(=O)CNC(=O)[C@H](Cc2ccc(N)cc2)NC(=O)[C@H](Cc2c[nH]cn2)NC(=O)CNC(=O)[C@H]([C@@H](C)O)NC(=O)[C@@H](NC(=O)[C@H](Cc2ccccc2)NC(=O)[C@H](CCCNC(=N)N)NC(=O)[C@@H](N)CCC(N)=O)C(C)(C)SSC[C@@H](C(=O)N[C@@H](CC(N)=O)C(=O)NCC(=O)N2CCC[C@H]2C(N)=O)NC(=O)[C@@H]2CCCN2C(=O)[C@H](Cc2ccc(O)cc2)NC1=O
Regarding B2, the dissociation constant (Kd) in test [1] amounted to 1 µM.

B3: Peptide No. 70 (peptide)
peptide: QRF[hCys]TGHFGGLYP[Pen]NGP-NH2
modifications: disulfide 4-14; N-terminus assumed
SMILES: CC(C)C[C@@H]1NC(=O)CNC(=O)CNC(=O)[C@H](Cc2ccccc2)NC(=O)[C@H](Cc2c[nH]cn2)NC(=O)CNC(=O)[C@H]([C@@H](C)O)NC(=O)[C@@H](NC(=O)[C@H](Cc2ccccc2)NC(=O)[C@H](CCCNC(=N)N)NC(=O)[C@@H](N)CCC(N)=O)CCSSC(C)(C)[C@@H](C(=O)N[C@@H](CC(N)=O)C(=O)NCC(=O)N2CCC[C@H]2C(N)=O)NC(=O)[C@@H]2CCCN2C(=O)[C@H](Cc2ccc(O)cc2)NC1=O
Molecule B3 yielded a Kd in test [5] of 2.1 µM.

B4: Peptide No. 90 (peptide)
peptide: QRF[Pen]TGH[Phe(4-Me)]GGLYPCNGP-NH2
modifications: disulfide 4-14; N-terminus assumed
SMILES: Cc1ccc(C[C@@H]2NC(=O)[C@H](Cc3c[nH]cn3)NC(=O)CNC(=O)[C@H]([C@@H](C)O)NC(=O)[C@@H](NC(=O)[C@H](Cc3ccccc3)NC(=O)[C@H](CCCNC(=N)N)NC(=O)[C@@H](N)CCC(N)=O)C(C)(C)SSC[C@@H](C(=O)N[C@@H](CC(N)=O)C(=O)NCC(=O)N3CCC[C@H]3C(N)=O)NC(=O)[C@@H]3CCCN3C(=O)[C@H](Cc3ccc(O)cc3)NC(=O)[C@H](CC(C)C)NC(=O)CNC(=O)CNC2=O)cc1
With B4, in test [1], the Kd came to 0.2 µM.
Regarding QRFCTGHXGGLYPCNGP (Pen 4; 3-PyridylAla 8; disulfide 4-14; C-terminal amide) [Peptide No. 59], in test [6], the IC50 was 60 µM. In test [1], this molecule returned a Kd of 19 µM.

B5: Peptide No. 217 (peptide)
peptide: RF[Pen]TGHF[dF][Sar][NMeL]YPC-NH2
modifications: disulfide 3-13; N-terminus assumed
SMILES: CC(C)C[C@H]1C(=O)N[C@@H](Cc2ccc(O)cc2)C(=O)N2CCC[C@H]2C(=O)N[C@H](C(N)=O)CSSC(C)(C)[C@H](NC(=O)[C@H](Cc2ccccc2)NC(=O)[C@@H](N)CCCNC(=N)N)C(=O)N[C@@H]([C@@H](C)O)C(=O)NCC(=O)N[C@@H](Cc2c[nH]cn2)C(=O)N[C@@H](Cc2ccccc2)C(=O)N[C@H](Cc2ccccc2)C(=O)N(C)CC(=O)N1C
In test [7], B5 yielded an equilibrium dissociation constant (Kd) of 1.4 µM. This lies in the single-digit micromolar range.

B6: Peptide No. 41 (peptide)
peptide: QRF[Pen]TGHFG[dR]LYPCNGP-NH2
modifications: disulfide 4-14; N-terminus assumed
SMILES: CC(C)C[C@@H]1NC(=O)[C@@H](CCCNC(=N)N)NC(=O)CNC(=O)[C@H](Cc2ccccc2)NC(=O)[C@H](Cc2c[nH]cn2)NC(=O)CNC(=O)[C@H]([C@@H](C)O)NC(=O)[C@@H](NC(=O)[C@H](Cc2ccccc2)NC(=O)[C@H](CCCNC(=N)N)NC(=O)[C@@H](N)CCC(N)=O)C(C)(C)SSC[C@@H](C(=O)N[C@@H](CC(N)=O)C(=O)NCC(=O)N2CCC[C@H]2C(N)=O)NC(=O)[C@@H]2CCCN2C(=O)[C@H](Cc2ccc(O)cc2)NC1=O
Consider B6, for which the results for the Kd in test [2] and in test [4] were 0.83 µM and 8.8 µM, respectively. The molecule also had an IC50 in test [3] of 8.1 µM.

B7: Peptide No. 295 (peptide)
peptide: QRF[Pen]TGHFG[dP]LYP[Pen]NGP-NH2
modifications: disulfide 4-14; N-terminus assumed
SMILES: CC(C)C[C@@H]1NC(=O)[C@H]2CCCN2C(=O)CNC(=O)[C@H](Cc2ccccc2)NC(=O)[C@H](Cc2c[nH]cn2)NC(=O)CNC(=O)[C@H]([C@@H](C)O)NC(=O)[C@@H](NC(=O)[C@H](Cc2ccccc2)NC(=O)[C@H](CCCNC(=N)N)NC(=O)[C@@H](N)CCC(N)=O)C(C)(C)SSC(C)(C)[C@@H](C(=O)N[C@@H](CC(N)=O)C(=O)NCC(=O)N2CCC[C@H]2C(N)=O)NC(=O)[C@@H]2CCCN2C(=O)[C@H](Cc2ccc(O)cc2)NC1=O
With B7, in test [8], the IC50 came out at 1.6 µM. In test [5], the Kd came to 0.28 µM.

B8: Peptide No. 42 (peptide)
peptide: QRF[Pen]TGHFG[dH]LYPCNGP-NH2
modifications: disulfide 4-14; N-terminus assumed
SMILES: CC(C)C[C@@H]1NC(=O)[C@@H](Cc2c[nH]cn2)NC(=O)CNC(=O)[C@H](Cc2ccccc2)NC(=O)[C@H](Cc2c[nH]cn2)NC(=O)CNC(=O)[C@H]([C@@H](C)O)NC(=O)[C@@H](NC(=O)[C@H](Cc2ccccc2)NC(=O)[C@H](CCCNC(=N)N)NC(=O)[C@@H](N)CCC(N)=O)C(C)(C)SSC[C@@H](C(=O)N[C@@H](CC(N)=O)C(=O)NCC(=O)N2CCC[C@H]2C(N)=O)NC(=O)[C@@H]2CCCN2C(=O)[C@H](Cc2ccc(O)cc2)NC1=O
As for B8, the Kd came to 2 µM in test [2] and 20 µM in test [4].

B9: Peptide No. 43 (peptide)
peptide: QRF[Pen]TGHFG[dI]LYPCNGP-NH2
modifications: disulfide 4-14; N-terminus assumed
SMILES: CC[C@@H](C)[C@H]1NC(=O)CNC(=O)[C@H](Cc2ccccc2)NC(=O)[C@H](Cc2c[nH]cn2)NC(=O)CNC(=O)[C@H]([C@@H](C)O)NC(=O)[C@@H](NC(=O)[C@H](Cc2ccccc2)NC(=O)[C@H](CCCNC(=N)N)NC(=O)[C@@H](N)CCC(N)=O)C(C)(C)SSC[C@@H](C(=O)N[C@@H](CC(N)=O)C(=O)NCC(=O)N2CCC[C@H]2C(N)=O)NC(=O)[C@@H]2CCCN2C(=O)[C@H](Cc2ccc(O)cc2)NC(=O)[C@H](CC(C)C)NC1=O
As to B9, the IC50 in test [3] turned out to be 18 µM. In addition, binding in test [4] was characterised by a dissociation constant (Kd) of 41 µM.

B10: Peptide No. 47 (peptide)
peptide: QRF[Pen]TGHF[dD]GLYPCNGP-NH2
modifications: disulfide 4-14; N-terminus assumed
SMILES: CC(C)C[C@@H]1NC(=O)CNC(=O)[C@@H](CC(=O)O)NC(=O)[C@H](Cc2ccccc2)NC(=O)[C@H](Cc2c[nH]cn2)NC(=O)CNC(=O)[C@H]([C@@H](C)O)NC(=O)[C@@H](NC(=O)[C@H](Cc2ccccc2)NC(=O)[C@H](CCCNC(=N)N)NC(=O)[C@@H](N)CCC(N)=O)C(C)(C)SSC[C@@H](C(=O)N[C@@H](CC(N)=O)C(=O)NCC(=O)N2CCC[C@H]2C(N)=O)NC(=O)[C@@H]2CCCN2C(=O)[C@H](Cc2ccc(O)cc2)NC1=O
For the molecule B10, the Kd is 0.58 µM in test [2] and 4.9 µM in test [4].

B11: Peptide No. 44 (peptide)
peptide: QRF[Pen]TGHFG[dF]LYPCNGP-NH2
modifications: disulfide 4-14; N-terminus assumed
SMILES: CC(C)C[C@@H]1NC(=O)[C@@H](Cc2ccccc2)NC(=O)CNC(=O)[C@H](Cc2ccccc2)NC(=O)[C@H](Cc2c[nH]cn2)NC(=O)CNC(=O)[C@H]([C@@H](C)O)NC(=O)[C@@H](NC(=O)[C@H](Cc2ccccc2)NC(=O)[C@H](CCCNC(=N)N)NC(=O)[C@@H](N)CCC(N)=O)C(C)(C)SSC[C@@H](C(=O)N[C@@H](CC(N)=O)C(=O)NCC(=O)N2CCC[C@H]2C(N)=O)NC(=O)[C@@H]2CCCN2C(=O)[C@H](Cc2ccc(O)cc2)NC1=O
For B11, the Kd in test [2] came to 1.7 µM; in test [4] it was 100 µM.
For QRFCTGHXGGLYPCNGP (Pen 4; 2-napthylalanine 8; disulfide 4-14; C-terminal amide) [Peptide No. 62], the IC50 in test [6] amounted to 90 µM. Further, binding in test [1] was put at a Kd of 11 µM.

B12: Peptide No. 89 (peptide)
peptide: QRF[Pen]TGH[Phe(3-Me)]GGLYPCNGP-NH2
modifications: disulfide 4-14; N-terminus assumed
SMILES: Cc1cccc(C[C@@H]2NC(=O)[C@H](Cc3c[nH]cn3)NC(=O)CNC(=O)[C@H]([C@@H](C)O)NC(=O)[C@@H](NC(=O)[C@H](Cc3ccccc3)NC(=O)[C@H](CCCNC(=N)N)NC(=O)[C@@H](N)CCC(N)=O)C(C)(C)SSC[C@@H](C(=O)N[C@@H](CC(N)=O)C(=O)NCC(=O)N3CCC[C@H]3C(N)=O)NC(=O)[C@@H]3CCCN3C(=O)[C@H](Cc3ccc(O)cc3)NC(=O)[C@H](CC(C)C)NC(=O)CNC(=O)CNC2=O)c1
For the molecule B12, in test [6], the IC50 is 4.1 µM. In test [1], binding was put at a Kd of 0.67 µM.
